The supplement of paper PMC7125110
± gives the standard error. Fewer inactive variants are shown than the library holds.

B1: glmS ribozyme (parent)
chain: AUAAAAGCGCCAGAACUACAGAAAUGUAGUUGACGAGGAGGAGGUUUAUCGAAUUUUCGGCGGAUGCCUCCAAA

Columns and labels:
Details in all cases: with glucosamine-6-phosphate
glucosamine-6-phosphate [1] = variants of: B1; experiment: self-cleavage kobs at 40 uM GlcN6P; higher = faster cleavage; RNA array
In short: (§1)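 Barcoded glmS ribozyme variants on sequenced MiSeq chips were transcribed in situ by E. coli RNA polymerase and tracked through a hybridised Cy3 probe at 37 °C. Glucosamine-6-phosphate (40 μM to 10 mM) in HEPES/KCl/Mg(OAc)2 buffer was flowed in, and tiles were imaged over ~14 h. Signals were normalised to baseline and to non-cleaving reference variants; per-tile medians were fit to one- or two-exponential decays to give kobs. kcat and KM came from weighted Michaelis–Menten fits across concentrations.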

glucosamine-6-phosphate [2] = variants of: B1; experiment: self-cleavage kobs at 2500 uM GlcN6P; higher = faster cleavage; RNA array
In short: as §1

glucosamine-6-phosphate [3] = variants of: B1; experiment: self-cleavage kobs at 10000 uM GlcN6P; higher = faster cleavage; RNA array
In short: as §1

glucosamine-6-phosphate [4] = variants of: B1; experiment: self-cleavage kobs at 640 uM GlcN6P; higher = faster cleavage; RNA array
In short: as §1

glucosamine-6-phosphate [5] = variants of: B1; experiment: self-cleavage kobs at 160 uM GlcN6P; higher = faster cleavage; RNA array
In short: as §1

| Variant | self-cleavage kobs at 40 uM GlcN6P (glucosamine-6-phosphate [1]) [s⁻¹] | self-cleavage kobs at 2500 uM GlcN6P (glucosamine-6-phosphate [2]) [s⁻¹] | self-cleavage kobs at 10000 uM GlcN6P (glucosamine-6-phosphate [3]) [s⁻¹] | self-cleavage kobs at 640 uM GlcN6P (glucosamine-6-phosphate [4]) [s⁻¹] | self-cleavage kobs at 160 uM GlcN6P (glucosamine-6-phosphate [5]) [s⁻¹] |
| --- | --- | --- | --- | --- | --- |
| AUAAAAGGGCCAGGACUACAGAAAUGUAGUUGGCGAGGAGGAGGUUUAUCGAAUUUUCGGCGGAUGCCUCCAAA [C8G A14G A33G] | < 1e-05 | < 1e-05 | < 1e-05 |  |  |
| AUAAAAGCGCCUCACCUACAGAAAUGUAGUUGAGGAGGAGGAGGUUUAUCGAAUUUUCGGCGGAUGCCUCCAAA [A12U G13C A15C C34G] | < 1e-05 | < 1e-05 | < 1e-05 | < 1e-05 |  |
| AUAAAAGCGCCAGAACUACAGAAAUGUAGUUGACGAAGAGGAGGUUUAUCGAAUUGUCGGCGGAUGCCUCCAAA [G37A U56G] | 5.06e-05 ± 1.6e-05 |  | 0.00174 ± 0.00028 |  |  |
| AUAAAAGCGCCAGAACUACAGAAAUGUAGUUGACGAGGAGGAUGUUGAUCGAAUUUUCGGCGGAUGCCUCCAAA [G43U U47G] | < 1e-05 |  |  |  | < 1e-05 |
| AUAAAAGCGCCAGAACUACAGAAAUGUAGUCGACGAGAAGGAGGUGUAUCGAAUUUUCGGCGGAUGCCUCCAAA [U31C G38A U46G] | < 1e-05 |  |  |  |  |
| AUAAAAGCGCCAGAACUACAGAAAUGUAGUUGACGAGGAGGAGCUUUAUAGAAUAUUCGGCGGAUGCCUUCAAA [G44C C50A U55A C70U] | < 1e-05 |  |  |  |  |
| AUAAAAGCGCGAGAAAUACAGAAAUGUAGUUGACGAGGAGGAGGUUUAUCGAAUUUUCGGCGGAUGCCGCCAAA [C11G C16A U69G] | 6.17e-05 ± 2.3e-05 |  | 5.6e-05 ± 1.7e-05 |  |  |
| AUAAAAGCGCCAGAACUACAGAAAUGUAGUUGACGAGGAGGAGGUUUAUGGAAUUUUAGGCGGAUGUCUCCAAA [C50G C58A C67U] | 3.98e-05 ± 1.7e-05 |  | 5.82e-05 ± 1.9e-05 |  |  |
| AUAAAAGCCCCAGAACUACAGAAAUGUAGAUGACGAGGAGGAGGUCUAUCGAAUUAUCGGCGGAUGCCUCCAAA [G9C U30A U46C U56A] | < 1e-05 |  | < 1e-05 |  |  |
| AUAAAAGCUCCAGAACUACAGAAAUGUAGUUGACGGGGAGGAGGUUUAUCGAAUUUUCGGCGGAUGCCUCCAAA [G9U A36G] | < 1e-05 | < 1e-05 | < 1e-05 |  |  |
| AUAAAAGCGCCAUAACUACAGAAAUGUAGUUGACGAGGAGGAGGCUUAUCGAAUUUUCGGCGGAUGCCUCCAAA [G13U U45C] | < 1e-05 |  | 6.21e-05 ± 1.4e-05 |  | < 1e-05 |
| AUAAAAACGCCAGAACUACAGAAAUGUAGUUGACGAGGAGGAGGUUUCUCGAAUUUUCAGCGGGUGCCUCCAAA [G7A A48C G59A A64G] | < 1e-05 |  | < 1e-05 |  |  |
| AUAAAAGCGCCAGAACUACAGAAAUGUAGUUGACGAAGAGGAGGUUUGUCGAAUUUUCGGCGGAUGCCUCCAAA [G37A A48G] | < 1e-05 |  |  |  | < 1e-05 |
| AUAAAAUCGCCAGAACUACAGAAAUGUAGUUGACGAGGAGGAGGUUUAUCCAAUUUUCGGCGGAUGCCUCCAAA [G7U G51C] | < 1e-05 | < 1e-05 |  | < 1e-05 |  |
| AUAAAAGCGCCAGAACUACAGAAAUGUAGUUGACGAGGAGGAGGUCCAUCGAAUUUUGGGCGGAUGCCUCCAAA [U46C U47C C58G] | < 1e-05 |  |  | < 1e-05 |  |
| AUAAAAGCGCCAGAACUACAGAAAUGUAGUUGACGAGGAGGAGGUCUAUCGAAUUUACGGCGGAUGCCUCCAAA [U46C U57A] | < 1e-05 |  | 5.47e-05 ± 1.8e-05 |  |  |
| AUAAAAGCGCCAGAACUACAGAAAUGUAGUUGACUAGGAGGAGGUUUAUCGAGUUUUCGGCGGAUGCCUCCAAA [G35U A53G] | < 1e-05 | < 1e-05 | < 1e-05 | < 1e-05 | < 1e-05 |
| AUAAAAGCGCCAGAACUACAGAAAUGUAGUUGACGAGGAGGAGGUUUAUCGAAUUUUCAGCGGCUGCCUCCAAA [G59A A64C] | < 1e-05 | < 1e-05 |  | < 1e-05 | < 1e-05 |
| AUAAAAGCGCCAGAACUACAGAAAUGUAGUUGACGAGGAGGAGGUUUAUCAAAUGUUCGGCGGAUGCCUCCAAA [G51A U55G] | < 1e-05 |  |  | < 1e-05 | < 1e-05 |
| AUAAAUGCGCGAGAACUACAGAAAUGUACUUGACGAGGAGGAGGCUUAUCGAAUUUUCGGCGGAUGCCUCCAAA [A6U C11G G29C U45C] | < 1e-05 |  |  |  |  |
| AUAAAAGCGCCAGAACUACAGAAAUGUAGUUGACGAGGAGGAGGUUUAUCGAAUAUUCGGGGGAUGCCUCCAAA [U55A C61G] | < 1e-05 |  | < 1e-05 |  |  |
| AUAAAAGCGCCAGAACUACAGAAAUGUACUUGACGAGGAGGAGGUUUAUCGAAUUUUCGGCGUAUGCCUCCAAA [G29C G63U] | < 1e-05 | < 1e-05 | < 1e-05 |  |  |
| AUAAAGGCGCCAGAACUACAGAAAUGUAGUUGACGAGGAGGAGCUUUAUCGAAUUUUCGGCGGAUGCCUCCAAA [A6G G44C] | < 1e-05 | < 1e-05 | < 1e-05 | < 1e-05 | < 1e-05 |
| AUAAAAGCGCCAGAACUACAGAAAUGUAGUUGACCAGGAGGAGGUUUAUCGAAUUUUCGGCGGAUGCAUCCAAA [G35C C68A] | < 1e-05 | < 1e-05 | < 1e-05 | < 1e-05 | < 1e-05 |
| AUAAAAGCGUCAGAACUACAGAAAUGUAGUUGACGAGGAGGAGGUUUAUCGAAUUUUCGGCGGUUGCCUCCAAA [C10U A64U] | < 1e-05 | < 1e-05 | < 1e-05 | < 1e-05 | < 1e-05 |
| AUAAAAUCGCUAGAACUACAGAAAUGUAGUUGACGAGGAGGAGGUUUAUCGAAUUUUCGGCGGAUGCCUCCAAA [G7U C11U] | < 1e-05 | < 1e-05 | < 1e-05 | < 1e-05 | < 1e-05 |
